The record followed here is patent US20180155451A1 (published 2018).

In test [1] the target is T1, FcγRIa extracellular domain with C-terminal His tag (human, UniProt P12314 16-292).
T1 construct: extracellular domain; also called FcgRI; FcgRIa; not shown: His tag at the C terminus
The test is described as follows: SPR (Biacore), antibody captured on chip, soluble FcgR as analyte; experiment 2. On the procedure:
(§1) Antibodies of interest were analyzed for the interaction to FcgR according to the method described in Reference Example 8.
(§2) Analysis of interaction between obj ective antibody and the FcγR was carried out using Biacore T100 (GE Healthcare), Biacore T200, Biacore A100, and Biacore 4000. HBS-EP+ (GE Healthcare) was used as the running buffer, and the measurement temperature was set to 25° C. Chips produced by immobilizing the antigen peptide by the amine coupling method to a Series S sensor Chip CM5 (GE Healthcare), chips produced by allowing preliminarily biotinylated antigen peptides to interact with and immobilize onto a Series S Sensor Chip SA (certified) (GE Healthcare), chips produced by immobilizing Protein L (ACTIGEN, BioVision) to Series S Sencor Chip CM5 (GE Healthcare), or chips produced by immobilizing Protein A/G (Thermo Scientific) to Series S Sencor Chip CM5 (GE Healthcare) were used. Antibodies of interest were captured onto these chips, and allowed to interact to each FcγR diluted with running buffer. To regenerate and repeatedly use the chip, the antibodies captured onto the chip were washed off by reacting 10 mM glycine-HCl, pH 1.5.

Test [2] concerns the target T2, FcγRIIIa F type extracellular domain with C-terminal His tag (human, UniProt P08637 17-208).
T2 construct: extracellular domain; also called FcgRIIIa F; FcgRIIIaF; not shown: His tag at the C terminus
Described as above. Here is the method:
as §1, §2

Test [3] addresses T3, FcγRIIa H type extracellular domain with C-terminal His tag (human, UniProt P12318 34-217).
T3 construct: extracellular domain; also called FcgRIIa H; FcgRIIaH; not shown: His tag at the C terminus
T3 sequence (looked up): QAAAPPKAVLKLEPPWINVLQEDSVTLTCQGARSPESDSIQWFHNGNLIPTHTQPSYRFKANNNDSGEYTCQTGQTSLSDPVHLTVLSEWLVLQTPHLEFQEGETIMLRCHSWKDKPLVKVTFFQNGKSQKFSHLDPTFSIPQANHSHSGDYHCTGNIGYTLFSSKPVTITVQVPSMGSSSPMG
The description is as above. Here is the method:
as §1, §2

For test [4], the target named is T4, FcγRIIIa V type extracellular domain with C-terminal His tag (human, UniProt P08637 17-208).
T4 construct: extracellular domain; also called FcgRIIIa V; FcgRIIIaV; not shown: His tag at the C terminus
The description is as above. Here is the method:
as §1, §2

Test [5] concerns the target T5, FcγRIIb extracellular domain with C-terminal His tag (human, UniProt P31994 43-217).
T5 construct: extracellular domain; also called FcgRIIb; 2b; not shown: His tag at the C terminus
T5 sequence (looked up): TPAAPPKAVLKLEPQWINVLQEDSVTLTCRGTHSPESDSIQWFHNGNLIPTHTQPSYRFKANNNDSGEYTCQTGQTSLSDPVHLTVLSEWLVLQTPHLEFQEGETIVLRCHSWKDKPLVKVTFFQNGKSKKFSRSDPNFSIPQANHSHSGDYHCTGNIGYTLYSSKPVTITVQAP
The test is described as above. Here is the method:
as §1, §2

Test [6] has as its target T6, FcγRIIa R type extracellular domain with C-terminal His tag (human, UniProt P12318 34-217).
T6 construct: extracellular domain; also called FcgRIIa R; FcgRIIaR; not shown: His tag at the C terminus
T6 sequence (looked up): T3 sequence (looked up) with H134R
The test is described as above. Here is the method: as §1, §2

For test [7], the target named is T7, FcγRIIIa extracellular domain with C-terminal His tag (human, UniProt P08637 17-208).
T7 construct: extracellular domain; also called FcgRIIIa; CD16A
The test is described as follows: SPR (Biacore), antibody captured on antigen peptide chip, FcγR as analyte. An excerpt: The expression vectors for the respective H chains were combined in a way that each of the alterations L234Y, G236W, S298A, S239D, A330L, and I332E is present in the same H chain as P329R or in the different H chain from P329R, and the expression vector GpL16-k0 for the L chain was combined with them. Antibodies of interest were expressed and prepared according to the method described in Reference Example 1. The prepared antibodies were used to assay the FcγRIIIa-binding activity. The result of assessment using P329R on the direction of FcγRIIIa recognition by L234Y, G236W, S298A, S239D, A330L, and I332E is summarized in Table 12.
Analysis of interaction between objective antibody and the FcγR was carried out using Biacore T100 (GE Healthcare). HBS-EP+ (GE Healthcare) was used as the running buffer, and the measurement temperature was set to 25° C. Chips produced by immobilizing the antigen peptide by the amine coupling method to a Series S Sencor Chip CM5 (GE Healthcare), or alternatively, chips produced by allowing preliminarily biotinylated antigen peptides to interact with and immobilize onto a Series S Sensor Chip SA (certified) (GE Healthcare) were used. Antibodies of interest were captured onto an antigen peptide-immobilized chip, and allowed to interact to each FcγR diluted with running buffer. To regenerate and repeatedly use the chip, the antibodies captured on the chip were washed off by reacting 10 mM glycine-HCl, pH 1.5.

Numbering of substitutions follows the chain as printed.

T7 sequence (P08637 17-208): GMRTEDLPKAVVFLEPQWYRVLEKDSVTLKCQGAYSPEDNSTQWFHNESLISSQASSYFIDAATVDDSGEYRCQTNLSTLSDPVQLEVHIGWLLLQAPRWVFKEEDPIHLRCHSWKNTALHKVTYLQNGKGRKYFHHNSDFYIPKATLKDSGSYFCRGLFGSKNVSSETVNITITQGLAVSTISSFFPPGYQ
T1 sequence (P12314 16-292): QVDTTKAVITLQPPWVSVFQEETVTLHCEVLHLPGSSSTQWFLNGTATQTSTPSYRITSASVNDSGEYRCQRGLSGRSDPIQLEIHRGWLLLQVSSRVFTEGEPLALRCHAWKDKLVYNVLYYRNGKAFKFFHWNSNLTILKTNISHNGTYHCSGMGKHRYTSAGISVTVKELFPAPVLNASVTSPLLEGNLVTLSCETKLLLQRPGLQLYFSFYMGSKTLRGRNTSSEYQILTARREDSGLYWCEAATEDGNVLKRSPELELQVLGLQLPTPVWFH
T2 sequence (P08637 17-208): as the sequence (P08637 17-208) above
T4 sequence (P08637 17-208 F176V): as the sequence (P08637 17-208) above, with F160V counted along it

B1: H240-FA024/H240-FB001/L73-k0 (antibody, human IgG1, kappa)
heavy 1: QDQLVQSGAEVKKPGASVKVSCKASGFNIKDTYIQWVRQAPGQGLEWMGRIDPLRKQTKYREKFEGRVTITADTSTNTAYMELSSLRSEDTAVYYCVRSGREFDYWGQGTLVTVSSASTKGPSVFPLAPSSKSTSGGTAALGCLVKDYFPEPVTVSWNSGALTSGVHTFPAVLQSSGLYSLSSVVTVPSSSLGTKTYTCNVNHKPSNTKVDKKVEPKSCDKTHTCPPCPAPEYYWGPSVFLFPPKPKDTLMISRTPEVTCVVVDVSDEEPKVKFNWYVDGVEVHNAKTKPREEQYNATYRVVSVLTVLHQDWLNGKEYKCKVSNKALPAPIEKTISKAKGQPREPQVYTLPPSRKEKTKNQVSLTCLVKGFYPSDIAVEWESNGQPENNYKTTPPVLDSDGSFFLYSKLTVDKSRWQQGNVFSCSVMHEALHNRYTQKSLSLSP
heavy 2: QDQLVQSGAEVKKPGASVKVSCKASGFNIKDTYIQWVRQAPGQGLEWMGRIDPLRKQTKYREKFEGRVTITADTSTNTAYMELSSLRSEDTAVYYCVRSGREFDYWGQGTLVTVSSASTKGPSVFPLAPSSKSTSGGTAALGCLVKDYFPEPVTVSWNSGALTSGVHTFPAVLQSSGLYSLSSVVTVPSSSLGTQTYICNVNHKPSNTKVDKKVEPKSCDKTHTCPPCPAPELLGGPSVFLFPPKPKDTLMISRTPEVTCVVVDVSHEEPEVQFNWYVDGVEVHNAKTKPREEQYNSTYRVVSVLTVLHQDWLNGKEYKCKVSNDALPMPIEETISKAKGQPREPQVYTLPPSREEMTKNQVSLTCLVKGFYPSDIAVEWESNGQPENNYKTTPPVLDSDGSFFLYSKLTVDKSRWQQGNVFSCSVMHEALHNHYTQESLSLSP
light: DIQMTQSPSSLSASVGDRVTITCRASQDIHKYIAWYQQKPGQAPRLLIQYTSTLQPGVPSRFSGSGSGTDYTFTISSLQPEDIATYYCLQYEQLRTFGGGTKVEIKRTVAAPSVFIFPPSDEQLKSGTASVVCLLNNFYPREAKVQWKVDNALQSGNSQESVTEQDSKDSTYSLSSTLTLSKADYEKHKVYACEVTHQGLSSPVTKSFNRGEC
notes: Heterodimerized anti-EREG IgG1 antibody; A chain altered from H240-AK072, B chain altered from H240-BH076
For B1, the Kd – broadly, a measure of binding affinity in units of concentration – in test [1] is 1.8 nM; in test [2], 6.7 nM; in test [3], 110 nM; in test [4], 1.9 nM; in test [5], 2000 nM; in test [6], 370 nM.

B2: H240-FA030/H240-FB001/L73-k0 (antibody, human IgG1, kappa)
heavy 1: B1 heavy 1 with K357M
heavy 2: B1 heavy 2
light: B1 light
notes: as for B1
As to B2, the Kd in test [1] was determined as 0.036 nM; in test [2] it was 6.4 nM; in test [3], 120 nM; in test [4], 1.7 nM; in test [5] it was 3300 nM; in test [6], 440 nM.

B3: GpH7-A5/GpH7-HA5/GpL16-k0 (antibody, human IgG1, kappa)
heavy 1: not shown
heavy 2: QVQLVQSGAEVKKPGASVTVSCKASGYTFTDYEMHWIRQPPGEGLEWIGAIDPKTGDTAYSESFQDRVTLTADKSTSTAYMELSSLTSEDTAVYYCTRFYSYTYWGQGTLVTVSSASTKGPSVFPLAPSSKSTSGGTAALGCLVKDYFPEPVTVSWNSGALTSGVHTFPAVLQSSGLYSLSSVVTVPSSSLGTQTYICNVNHKPSNTKVDKKVEPKSCDKTHTCPPCPAPEYLGGPSVFLFPPKPKDTLMISRTPEVTCVVVDVSHEDPEVKFNWYVDGVEVHNAKTKPREEQYNSTYRVVSVLTVLHQDWLNGKEYKCKVSNKALRAPIEKTISKAKGQPREPQVYTLPPSRDELTKNQVSLTCLVKGFYPSDIAVEWESNGQPENNYKTTPPVLDSDGSFFLYSKLTVDKSRWQQGNVFSCSVMHEALHNHYTQESLSLSP
light: DIVMTQSPLSLPVTPGEPASISCQASESLVHSNRNTYLHWYLQKPGQSPQLLIYKVSNRFSGVPDRFSGSGSGTDFTLKISRVEAEDVGVYYCSQNTHVPPTFGQGTKVEIERTVAAPSVFIFPPSDEQLKSGTASVVCLLNNFYPREAKVQWKVDNALQSGNSQESVTEQDSKDSTYSLSSTLTLSKADYEKHKVYACEVTHQGLSSPVTKSFNRGEC
notes: Heterodimerized anti-glypican-3 IgG1 variant
On to B3, for which the “FcγRIIIa BINDING ACTIVITY (relative)” value in test [7] was 60 relative, GpH7-A5/GpH7-B3/GpL16-k0 = 100.

B4: GpH7-A48/GpH7-B3-01-15Y/GpL16-k0 (antibody, human IgG1, kappa)
heavy 1: B3 heavy 2 with Y232L, D354K, H433R, E437K
heavy 2: not shown
light: B3 light
notes: as for B3
In the case of B4, in test [7], the “FcγRIIIa BINDING ACTIVITY (relative)” value was 11 relative, GpH7-A5/GpH7-B3/GpL16-k0 = 100.

B5: GpH7-A5/GpH7-HA7/GpL16-k0 (antibody, human IgG1, kappa)
heavy 1: not shown
heavy 2: B3 heavy 2 with Y232L, S237D
light: B3 light
notes: as for B3
For the molecule B5, in test [7], the “FcγRIIIa BINDING ACTIVITY (relative)” value was 3 relative, GpH7-A5/GpH7-B3/GpL16-k0 = 100.

B6: GpH7-A5/GpH7-HA15/GpL16-k0 (antibody, human IgG1, kappa)
heavy 1: not shown
heavy 2: B3 heavy 2 with Y232L, A328L
light: B3 light
notes: as for B3
In the case of B6, the “FcγRIIIa BINDING ACTIVITY (relative)” value in test [7] is 32 relative, GpH7-A5/GpH7-B3/GpL16-k0 = 100.

B7: GpH7-A5/GpH7-HA6/GpL16-k0 (antibody, human IgG1, kappa)
heavy 1: not shown
heavy 2: B3 heavy 2 with Y232L, G234W
light: B3 light
notes: as for B3
For B7, the “FcγRIIIa BINDING ACTIVITY (relative)” value in test [7] was 56 relative, GpH7-A5/GpH7-B3/GpL16-k0 = 100.

B8: GpH7-A48/GpH7-B3-15-02A/GpL16-k0 (antibody, human IgG1, kappa)
heavy 1: B3 heavy 2 with Y232L, D354K, H433R, E437K
heavy 2: not shown
light: B3 light
notes: as for B3
As to B8, the “FcγRIIIa BINDING ACTIVITY (relative)” value in test [7] is 47 relative, GpH7-A5/GpH7-B3/GpL16-k0 = 100.

B9: GpH7-A48/GpH7-B3-03-20W/GpL16-k0 (antibody, human IgG1, kappa)
heavy 1: B3 heavy 2 with Y232L, D354K, H433R, E437K
heavy 2: not shown
light: B3 light
notes: as for B3
As for B9, in test [7], the “FcγRIIIa BINDING ACTIVITY (relative)” value was 13 relative, GpH7-A5/GpH7-B3/GpL16-k0 = 100.

B10: GpH7-A48/GpH7-B3-06-09D/GpL16-k0 (antibody, human IgG1, kappa)
heavy 1: B3 heavy 2 with Y232L, D354K, H433R, E437K
heavy 2: not shown
light: B3 light
notes: as for B3
With B10, the “FcγRIIIa BINDING ACTIVITY (relative)” value in test [7] is 123 relative, GpH7-A5/GpH7-B3/GpL16-k0 = 100.

B11: GpH7-A5/GpH7-HA18/GpL16-k0 (antibody, human IgG1, kappa)
heavy 1: not shown
heavy 2: B3 heavy 2 with Y232L, I330E
light: B3 light
notes: as for B3
With B11, the “FcγRIIIa BINDING ACTIVITY (relative)” value in test [7] was 35 relative, GpH7-A5/GpH7-B3/GpL16-k0 = 100.

B12: GpH7-A48/GpH7-B3-20-08L/GpL16-k0 (antibody, human IgG1, kappa)
heavy 1: B3 heavy 2 with Y232L, D354K, H433R, E437K
heavy 2: not shown
light: B3 light
notes: as for B3
B12: in test [7], the “FcγRIIIa BINDING ACTIVITY (relative)” value was 60 relative, GpH7-A5/GpH7-B3/GpL16-k0 = 100.

B13: GpH7-A48/GpH7-B3-22-10E/GpL16-k0 (antibody, human IgG1, kappa)
heavy 1: B3 heavy 2 with Y232L, D354K, H433R, E437K
heavy 2: not shown
light: B3 light
notes: as for B3
Turning to B13, the “FcγRIIIa BINDING ACTIVITY (relative)” value in test [7] was 189 relative, GpH7-A5/GpH7-B3/GpL16-k0 = 100.

B14: GpH7-A5/GpH7-HA11/GpL16-k0 (antibody, human IgG1, kappa)
heavy 1: not shown
heavy 2: B3 heavy 2 with Y232L, S296A
light: B3 light
notes: as for B3
B14: the “FcγRIIIa BINDING ACTIVITY (relative)” value in test [7] is 84 relative, GpH7-A5/GpH7-B3/GpL16-k0 = 100.
